Changes are numbered by the printed parent chain.

In series [1] the target is T1, RefZ E117D-His6 E117D (Bacillus subtilis 168) (UniProt O34970).
T1 sequence: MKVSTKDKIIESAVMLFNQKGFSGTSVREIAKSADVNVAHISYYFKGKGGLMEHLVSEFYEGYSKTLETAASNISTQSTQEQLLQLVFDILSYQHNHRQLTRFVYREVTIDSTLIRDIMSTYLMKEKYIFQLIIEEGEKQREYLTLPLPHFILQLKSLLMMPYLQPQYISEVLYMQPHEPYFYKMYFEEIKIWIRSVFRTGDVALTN
Kind of series: EMSA. Conditions: 150 mM KCl, 10 mM Tris-HCl pH 8.0; EMSA 10 nM DNA, 30 min, gel at room temperature; BLI 800 nM protein, 30 C. A general note: In EMSA bound probe runs differently from free probe, usually more slowly.

In series [2] the target is T2, RefZ R116W-His6 R116W (Bacillus subtilis 168) (UniProt O34970).
T2 sequence: T1 sequence with R116W, D117E
Kind of series: EMSA. Conditions: 150 mM KCl, 10 mM Tris-HCl pH 8.0; EMSA 10 nM DNA, 30 min, gel at room temperature; BLI 800 nM protein, 30 C.

For series [3], the target named is T3, RefZ E53K-His6 E53K (Bacillus subtilis 168) (UniProt O34970).
T3 sequence: T1 sequence with E53K, D117E
In words: EMSA. Conditions: 150 mM KCl, 10 mM Tris-HCl pH 8.0; EMSA 10 nM DNA, 30 min, gel at room temperature; BLI 800 nM protein, 30 C.

The target in series [4] is T4, RefZ E179K-His6 E179K (Bacillus subtilis 168) (UniProt O34970).
T4 sequence: T1 sequence with D117E, E179K
Kind of series: EMSA. Conditions: 150 mM KCl, 10 mM Tris-HCl pH 8.0; EMSA 10 nM DNA, 30 min, gel at room temperature; BLI 800 nM protein, 30 C.

Series [5] concerns the target T5, RefZ R116S-His6 R116S (Bacillus subtilis 168) (UniProt O34970).
T5 sequence: T1 sequence with R116S, D117E
In words: EMSA. The following applies: 150 mM KCl, 10 mM Tris-HCl pH 8.0; EMSA 10 nM DNA, 30 min, gel at room temperature; BLI 800 nM protein, 30 C.

Series [6] concerns the target T6, RefZ E61K-His6 E61K (Bacillus subtilis 168) (UniProt O34970).
T6 sequence: T1 sequence with E61K, D117E
In words: EMSA. The following applies: 150 mM KCl, 10 mM Tris-HCl pH 8.0; EMSA 10 nM DNA, 30 min, gel at room temperature; BLI 800 nM protein, 30 C.

The target in series [7] is T7, RefZ L153R-His6 L153R (Bacillus subtilis 168) (UniProt O34970).
T7 sequence: T1 sequence with D117E, L153R
In words: EMSA. Conditions: 150 mM KCl, 10 mM Tris-HCl pH 8.0; EMSA 10 nM DNA, 30 min, gel at room temperature; BLI 800 nM protein, 30 C.

For series [8], the target named is T8, RefZ-His6 (WT) (Bacillus subtilis PY79) (UniProt O34970).
T8 sequence: T1 sequence with D117E
In words: EMSA. Conditions: 150 mM KCl, 10 mM Tris-HCl pH 8.0; EMSA 10 nM DNA, 30 min, gel at room temperature; BLI 800 nM protein, 30 C.

The target in series [9] is T9, RefZ E117G-His6 E117G (Bacillus subtilis 168) (UniProt O34970).
T9 sequence: T1 sequence with D117G
In words: EMSA. Conditions: 150 mM KCl, 10 mM Tris-HCl pH 8.0; EMSA 10 nM DNA, 30 min, gel at room temperature; BLI 800 nM protein, 30 C.

Series [10] concerns the target T10, RefZ R102C-His6 R102C (Bacillus subtilis 168) (UniProt O34970).
T10 sequence: T1 sequence with R102C, D117E
In words: EMSA. Conditions: 150 mM KCl, 10 mM Tris-HCl pH 8.0; EMSA 10 nM DNA, 30 min, gel at room temperature; BLI 800 nM protein, 30 C.

Series [11] addresses T11, RefZ R102S-His6 R102S (Bacillus subtilis 168) (UniProt O34970).
T11 sequence: T1 sequence with R102S, D117E
In words: EMSA. The following applies: 150 mM KCl, 10 mM Tris-HCl pH 8.0; EMSA 10 nM DNA, 30 min, gel at room temperature; BLI 800 nM protein, 30 C.

The target of series [12] is RefZ-His6 (wild-type RefZ) (Bacillus subtilis). In words: crystal structure; RefZ-His6 at ~5 mg/ml, dialyzed into 50 mM Tris-HCl pH 8.5, 300 mM KCl with RBM dsDNA added (4:1 RefZ:DNA); hanging-drop vapor diffusion at 16°C; no DNA seen in the crystal; one molecule in the asymmetric unit of a P4(1)2(1)2 lattice; 2.6 Å.
Another series addresses T12, RefZ E117G-His6 (Bacillus subtilis 168, UniProt O34970 1-207, E117G).
T12 sequence: T1 sequence with D117G
In words: BLI; within 2-fold of WT, P = 0.025; 150 mM KCl, 10 mM Tris-HCl pH 8.0; EMSA 10 nM DNA, 30 min, gel at room temperature; BLI 800 nM protein, 30 C. The following applies: protein: recombinant; tags: C-terminal His6 (pET-24b NheI/XhoI); chain copies: 2; label: 5' biotin on S27 strand; blunt. Background: In BLI a coated tip is dipped into the sample, and binding shifts an interference pattern.

The target of a further series is T13, RefZ-His6 (WT) (Bacillus subtilis PY79, UniProt O34970 1-207).
T13 sequence: T1 sequence with D117E
In words: BLI; Kd value only in Fig. 6 image; reference; 150 mM KCl, 10 mM Tris-HCl pH 8.0; EMSA 10 nM DNA, 30 min, gel at room temperature; BLI 800 nM protein, 30 C. The following applies: protein: recombinant; tags: C-terminal His6 (pET-24b NheI/XhoI); chain copies: 2; label: 5' biotin on S27 strand; blunt.

The next series has as its target T14, RefZ R102C-His6 (Bacillus subtilis 168, UniProt O34970 1-207, R102C).
T14 sequence: T1 sequence with R102C, D117E
Kind of series: BLI; Kd within 2-fold of WT; 150 mM KCl, 10 mM Tris-HCl pH 8.0; EMSA 10 nM DNA, 30 min, gel at room temperature; BLI 800 nM protein, 30 C. The following applies: protein: recombinant; tags: C-terminal His6 (pET-24b NheI/XhoI); chain copies: 2; label: 5' biotin on S27 strand; blunt.

For the next series, the target named is T15, RefZ E179K-His6 (Bacillus subtilis 168, UniProt O34970 1-207, E179K).
T15 sequence: T1 sequence with D117E, E179K
Described as above. Conditions: protein: recombinant; tags: C-terminal His6 (pET-24b NheI/XhoI); chain copies: 2; label: 5' biotin on S27 strand; blunt.

A further series has as its target T16, RefZ E53K-His6 (Bacillus subtilis 168, UniProt O34970 1-207, E53K).
T16 sequence: T1 sequence with E53K, D117E
Described as above. The following applies: protein: recombinant; tags: C-terminal His6 (pET-24b NheI/XhoI); chain copies: 2; label: 5' biotin on S27 strand; blunt.

The next series has as its target T17, RefZ R102S-His6 (Bacillus subtilis 168, UniProt O34970 1-207, R102S).
T17 sequence: T1 sequence with R102S, D117E
Described as above. Conditions: protein: recombinant; tags: C-terminal His6 (pET-24b NheI/XhoI); chain copies: 2; label: 5' biotin on S27 strand; blunt.

The target in a further series is T18, RefZ E117D-His6 (Bacillus subtilis 168, UniProt O34970 1-207, E117D).
T18 sequence: T1 sequence
The series is described as above. Conditions: protein: recombinant; tags: C-terminal His6 (pET-24b NheI/XhoI); chain copies: 2; label: 5' biotin on S27 strand; blunt.

The target in a further series is T19, RefZ R116S-His6 (Bacillus subtilis 168, UniProt O34970 1-207, R116S).
T19 sequence: T1 sequence with R116S, D117E
The description is as above. The following applies: protein: recombinant; tags: C-terminal His6 (pET-24b NheI/XhoI); chain copies: 2; label: 5' biotin on S27 strand; blunt.

A further series has as its target T20, RefZ E61K-His6 (Bacillus subtilis 168, UniProt O34970 1-207, E61K).
T20 sequence: T1 sequence with E61K, D117E
The description is as above. The following applies: protein: recombinant; tags: C-terminal His6 (pET-24b NheI/XhoI); chain copies: 2; label: 5' biotin on S27 strand; blunt.

On to “ATCAGCGCTCTGGTGATTGCAAGCTGCTGCTGTTGACCGCCTTTTCGTTTTGAACAAACGTTTGATTAAAACAAATAGCCCCCTCTGTTTAGCCGGAGTCGGCCTAATACAGCGACAATCTGCCCCGGGCGAAGCTAAGGCTGTGCAAAA (double strand) [RBML1 150-bp probe]”, for which the binding entry in series [1], in series [2], in series [3], in series [4], in series [5] and in series [6] was “binds” each time. For the same molecule, the binding entry in series [7] is on record as “binds more weakly”; in series [8], “binds”; in series [9] it was “binds”; in series [10] it was “binds”; in series [11], “binds”.

In turn, “RefZ-His6 (wild-type RefZ) (natural protein)” had a stoichiometry N in series [12] of 2.

B1: RBML1 41-bp (dsDNA)
DNA 1: GCCTTTTCGTTTTGAACAAACGTTTGATTAAAACAAATAGC
DNA 2: GCTATTTGTTTTAATCAAACGTTTGTTCAAAACGAAAAGGC
For the molecule B1, the binding result with RefZ E117G-His6, with RefZ-His6 (WT), with RefZ R102C-His6, with RefZ E179K-His6, with RefZ E53K-His6 and with RefZ R102S-His6 was “binds” throughout. Besides, the binding result with RefZ E117D-His6, with RefZ R116S-His6 and with RefZ E61K-His6 was “binds” each time.

One may read the stoichiometry N as a count of units in the complex or per binding partner.

Source of the values: publication PMC6657595, “A DNA-Binding Protein Tunes Septum Placement during Bacillus subtilis Sporulation”.
